In experiment [1] the target is T1, extracellular domain of human CD73 protein (CD73-ECD), C-terminus polyhistidine-tagged (human, UniProt P21589 27-547).
T1 construct: also called Human CD73-ECD; human recombinant CD73 enzyme (CD73 extracellular domain)
T1 sequence: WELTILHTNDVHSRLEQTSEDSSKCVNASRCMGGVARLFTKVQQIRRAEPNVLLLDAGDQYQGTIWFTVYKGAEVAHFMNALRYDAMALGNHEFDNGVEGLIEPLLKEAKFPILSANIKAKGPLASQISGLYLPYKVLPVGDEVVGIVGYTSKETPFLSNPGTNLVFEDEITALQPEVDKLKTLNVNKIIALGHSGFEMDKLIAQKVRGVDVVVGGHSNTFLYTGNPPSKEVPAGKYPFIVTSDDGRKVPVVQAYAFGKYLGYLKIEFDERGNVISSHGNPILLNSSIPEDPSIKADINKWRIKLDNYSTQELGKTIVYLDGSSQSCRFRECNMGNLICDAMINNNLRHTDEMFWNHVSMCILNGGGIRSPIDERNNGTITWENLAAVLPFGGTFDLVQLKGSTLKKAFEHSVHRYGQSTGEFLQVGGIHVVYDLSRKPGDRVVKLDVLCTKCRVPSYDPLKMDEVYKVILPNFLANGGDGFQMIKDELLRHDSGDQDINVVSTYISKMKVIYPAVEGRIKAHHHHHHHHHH
As to the kind of experiment: ELISA, coated CD73-ECD.

In experiment [2] the target is T2, CD73 on the surface of human tumor cells (human, UniProt P21589 27-549).
T2 construct: whole, on cells; One entry for endogenous CD73 on all cell lines; the cell line is named under assay or readout; also called CD73 receptors on the surface of tumor cells; tumor cell CD73
T2 sequence (looked up): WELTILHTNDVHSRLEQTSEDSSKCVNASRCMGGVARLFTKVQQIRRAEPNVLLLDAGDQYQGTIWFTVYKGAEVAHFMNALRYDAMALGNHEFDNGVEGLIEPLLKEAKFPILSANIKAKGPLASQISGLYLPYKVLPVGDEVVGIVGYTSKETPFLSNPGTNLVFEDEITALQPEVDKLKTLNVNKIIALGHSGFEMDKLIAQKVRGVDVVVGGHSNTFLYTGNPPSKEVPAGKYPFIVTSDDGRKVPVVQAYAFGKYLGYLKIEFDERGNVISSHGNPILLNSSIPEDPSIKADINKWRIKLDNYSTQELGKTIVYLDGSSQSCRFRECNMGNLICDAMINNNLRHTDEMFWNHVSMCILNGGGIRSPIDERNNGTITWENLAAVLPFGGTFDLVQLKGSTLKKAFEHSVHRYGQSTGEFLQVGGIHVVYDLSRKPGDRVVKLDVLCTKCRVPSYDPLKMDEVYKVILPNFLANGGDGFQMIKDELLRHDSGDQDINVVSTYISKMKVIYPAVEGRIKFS
As to the kind of experiment: flow cytometry, NCI-H1299 cells.

The target in experiment [3] is T1, extracellular domain of human CD73 …. Description: cell-based or functional assay.
In experiment [4] the target is T2, CD73 on the surface of human tumor cells. As to the kind of experiment: cell-based or functional assay.
Experiment [5] has the same target. Description: flow cytometry, MDA-MB-231 cells.
The target is the same in experiment [6]. Description: FACS, 5 µg/mL antibody, CD73-high Calu-1 against CD73-low MDA-MB-453 cells. The procedure:
3×10⁵ tumor cells were mixed well with the antibody (final concentration was 5 μg/mL), and then incubated at 4° C. for 1 h. The cells were washed twice with PBS to remove the unbound primary antibody. Then the target cells were incubated with PE-labeled secondary antibody at 4° C. for 30 minutes. The cells were washed twice with PBS to remove the unbound secondary antibody. Finally, the cells were resuspended in 200 μL PBS and the binding rate was detected with a Fluorescence Activated Cell Sorter (FACS).
The chimeric antibody could specifically recognize and bind tumor cells with CD73 high expression.

Experiment [7] has the same target. As to the kind of experiment: FACS, NCI-H1299 cells. Here is the method:
Alternatively, 100 μL of mAb001c, mAb002c, mAb004c diluted in a 3-fold gradient from 100 nM to 0.046 nM were used as primary antibodies and mixed with 1×10⁵ NCI-H1299 cells suspended in 100 μL RPMI-1640 serum-free medium. Then the obtained solutions were incubated at 4° C. for 1 h, the cells were washed twice with PBS to remove unbound primary antibody, and the target cells were incubated with 200 μL PE-labeled secondary antibody (2 μg/mL) at 4° C. for 30 min. The cells were washed twice with PBS to remove unbound secondary antibody. Finally, the cells were resuspended in 200 μL PBS, and the binding affinities of the test antibodies to CD73 on the cell surface were determined by a flow cytometer.
With reference to the methods in Examples 4-8, the ELISA affinity to CD73-ECD protein, the inhibitory activity on recombinant human CD73 enzyme, the binding affinity to tumor cells, and the inhibitory activity on CD73 enzyme of tumor cells of the above prepared MEDI9447-κ as well as the antibodies mAb001c and mAb002c were detected.

For experiment [8] the target is unchanged. Description: FACS, MDA-MB-231 cells.
For experiment [9] the target is unchanged. Description: cell-based or functional assay. The source holds these as a separate data set.

Substitutions are numbered along the chain they refer to. Where “and” joins values, the source holds several entries; their conditions need not be identical. Equal entries are not always repeated.

B1: Hu002c-16 (antibody, V domains shown)
VH: QVQLVQSGAEVKKPGASVKVSCKASGYTLTSYWMHWVKKAPGQGLEWIGEINPSQGRSNYNEKFKSKVTLTVDRSTSTVYMELSSLRSEDTAVYYCARRGVSGNYFDYWGQGTLVTVSS
VL: DIQMTQSPSSLSASVGDRVTITCKASQDINTYLSWFQQKPGKSPKSLIYRSNILVSGVPSRFSGSGSGQDYTLTISSLQPEDFAIYYCLQYDEFPYTFGGGTKLEI
notes: Humanized
B1: the binding result in [1] and in experiment [2] was “binds” each time.

B2: mAb004c (antibody, V domains shown)
VH: EVQLQQSGPELVKPGASVKIPCKASGYTFTDYNMDWVKQSHGKSLEWIGDINPNNGGSVYNQKFKGKATLTVDKSSSTAYMELRSLTSEDTAVYYCGRITGTGYWSFDVWGTGTTVTVSP
VL: DIQMTQSPASLSVSVGETVTITCRASENIYSNLAWYQQKQGKSPQLLVYGATNLAEGVPSRFSGSGLGTQYSLKISSLQSEDFGSYYCQHFWGIPWTFGGGTKLEIK
notes: also called human-mouse chimeric antibody mAb004c
As for B2, in experiment [1], a half-maximal effect (EC50) was put at 0.038 nM. Besides, the “IC50, inhibition of AMP hydrolysis by recombinant human CD73 (CellTiter-Glo)” value in experiment [3] turned out to be 0.039 nM. In addition, in [4], the “IC50, inhibition of CD73 enzyme on Calu-1 cells (AMP hydrolysis)” value worked out at 0.63 nM; the “IC50, inhibition of CD73 enzyme on MDA-MB-231 cells (AMP hydrolysis)” value came to 4.16 nM; the “IC50, inhibition of CD73 enzyme on NCI-H1299 cells (AMP hydrolysis)” value amounted to 0.385 nM. In experiment [2], this molecule had an EC50 of 2.2 nM. Further, a half-maximal effect in experiment [5] (EC50) was put at 2.5 nM. Further, the “difference in binding rate (MFI), Calu-1 against MDA-MB-453” value in [6] amounted to 856 times.

B3: Hu001c-22 (antibody, V domains shown)
VH: QVQLVQSGAEVKKPGASVKVSCKASGYTFTNYYIYWVKQRPGQRLEWIGWIYPGNLNIKYNEKFKGRVTITADKSASTAYMELSSLRSEDTAVYYCARDDNYAWFAYWGQGTLVTVSS
VL: DIQMTQSPSSLSASVGDRVTITCKASQDVSTAVAWYQQKPGKAPKLLIYWTNTRHTGVPSRFSGSGSGTDHTLTISSLQPEDFATYYCQQHYSTPFTFGQGTKLEIK
notes: Humanized
With B3, the binding result in experiment [1] and in experiment [5] was “binds” throughout.

B4: Hu001c-24 (antibody, V domains shown)
VH: B3 VH with A24T, R44G
VL: B3 VL
notes: Humanized
For B4, the binding result in experiment [1] and in experiment [5] was “binds” throughout.

B5: Hu001c-25 (antibody, V domains shown)
VH: B3 VH with K38R, R40A
VL: B3 VL with A43S
notes: Humanized
Turning to B5, the binding result in experiment [1] and in [5] was “binds” each time.

B6: Hu001c-23 (antibody, V domains shown)
VH: B3 VH with R44G
VL: B3 VL
notes: Humanized
As for B6, the binding result in experiment [1] and in experiment [5] was “binds” each time.

B7: mAb001c (antibody, V domains shown)
VH: QVQLQQSGPELVKPGASVRISCKTSGYTFTNYYIYWVKQRPGQGLEWIGWIYPGNLNIKYNEKFKGKSTLTADKSSSTAFMQLSSLTSEDSAVYFCARDDNYAWFAYWGQGTLVTVSS
VL: DIVMTQSHKFMSTSIGDRVSITCKASQDVSTAVAWYQQKPGQSPKLLIYWTNTRHTGVPDRFTGNTSGTEHTLTISSVQAEDLALYYCQQHYSTPFTFGSGTTLEIK
notes: also called human-mouse chimeric antibody mAb001c
For the molecule B7, the EC50 turned out to be 0.024 nM in experiment [1]; 1.03 nM in experiment [7]; 0.712 nM in experiment [8]; 1 nM in experiment [2]; 0.7 nM in experiment [5]. Besides, the “IC50, inhibition of AMP hydrolysis by recombinant human CD73 (CellTiter-Glo)” value in [3] is 0.025 nM. For the same molecule, the “Calu-1 CD73 Enzyme Inhibition IC50” value in [9] is 0.506 nM. In addition, the “MDA-MB-231 CD73 Enzyme Inhibition IC50” value in experiment [9] turned out to be 1.86 nM. The “NCI-H1299 CD73 Enzyme Inhibition IC50” value in [9] is 0.236 nM. For the same molecule, in experiment [6], the “difference in binding rate (MFI), Calu-1 against MDA-MB-453” value stood at 250 times.

B8: mAb001c-VK-SGS (antibody, V domains shown)
VH: B7 VH
VL: B7 VL with N65S, T66G
Turning to B8, the “IC50, inhibition of the catalytic function of recombinant human CD73 (CellTiter-Glo)” value in [3] came to 0.02 nM. Further, in experiment [5], the half-maximal effective concentration (EC50) was 1.39 nM.

B9: MEDI9447-κ (antibody, V domains shown)
VH: EVQLLESGGGLVQPGGSLRLSCAASGFTFSSYAYSWVRQAPGKGLEWVSAISGSGGRTYYADSVKGRFTISRDNSKNTLYLQMNSLRAEDTAVYYCARLGYGRVDEWGRGTLVTVSS
VL: QSVLTQPPSASGTPGQRVTISCSGSLSNIGRNPVNWYQQLPGTAPKLLIYLDNLRLSGVPDRFSGSKSGTSASLAISGLQSEDEADYYCATWDDSHPGWTFGGGTKLTVL
Consider B9, for which a half-maximal effect in experiment [7] (EC50) was put at 1.27 nM. In [8], this molecule displayed an EC50 of 0.752 nM. In experiment [9], the “Calu-1 CD73 Enzyme Inhibition IC50” value stood at 0.527 nM, the “MDA-MB-231 CD73 Enzyme Inhibition IC50” value came to 1.1 nM and the “NCI-H1299 CD73 Enzyme Inhibition IC50” value was determined as 0.388 nM.

B10: mAb002c-VH-QG/VK-SG (antibody, V domains shown)
VH: QVQLQQPGAELVKPGASVRLSCKASGYTLTSYWMHWVKKRPGQGLEWIGEINPSQGRSNYNEKFKSKATLTVDRSSSTVYMQLGSLTSEDSAVYYCARRGVSGNYFDYWGQGTTLTVSS
VL: DIKMTQSPSSMYASLGERVTMTCKASQDINTYLSWFQQKPGKSPKTLIYRSNILVSGVPSRFSGSRSGQDYYLTITSLEYEDMGIYYCLQYDEFPYTFGGGTKLELK
Turning to B10, the “IC50, inhibition of the catalytic function of recombinant human CD73 (CellTiter-Glo)” value in experiment [3] was 0.038 nM and 0.06 nM.

B11: mAb002c-VH-NA (antibody, V domains shown)
VH: B10 VH with Q55N, G56A
VL: B10 VL with S56D
In experiment [5], B11 came in with a concentration for a half-maximal effect (EC50) of 0.43 nM. In other words, the sub-nanomolar range.

B12: mAb002c-VK-SG (antibody, V domains shown)
VH: B10 VH with Q55N
VL: B10 VL
For B12, the EC50 in experiment [5] is 0.46 nM. The EC50 values of the last two molecules are within 1.5-fold of each other.

B13: mAb002c-VH-QG (antibody, V domains shown)
VH: B10 VH
VL: B10 VL with S56D
B13 registered a 50% effective concentration (EC50) in experiment [5] of 0.43 nM.

The values are drawn from patent US20210024646A1 (FUDAN UNIVERSITY, published 2021).
